Experimental data taken from US20200317768A1 (published 2020).
Numbering of substitutions follows the chain as printed. Numbers in names are those of the source.

T1: cynomolgus monkey FcγRIIa1 extracellular domain, C-terminal His-tag (cynomolgus monkey)
T1 construct: also called cyno FcγRIIa1; cynoFcgRIIa1; not shown: His-tag added to C-terminus
T1 chain: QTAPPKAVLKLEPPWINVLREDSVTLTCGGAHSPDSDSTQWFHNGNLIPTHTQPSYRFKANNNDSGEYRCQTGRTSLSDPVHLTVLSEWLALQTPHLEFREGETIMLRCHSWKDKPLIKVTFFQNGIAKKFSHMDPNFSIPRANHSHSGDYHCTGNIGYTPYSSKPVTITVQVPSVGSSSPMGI

T2: cynomolgus monkey FcγRIIa2 extracellular domain, C-terminal His-tag (cynomolgus monkey)
T2 construct: also called cyno FcγRIIa2; cynoFcgRIIa2; not shown: His-tag added to C-terminus
T2 chain: T1 chain with P95T, T121A, I127K, A128S, K130N, D135N, R142Q

T3: cynomolgus monkey FcγRIIa3 extracellular domain, C-terminal His-tag (cynomolgus monkey)
T3 construct: also called cyno FcγRIIa3; cynoFcgRIIa3; not shown: His-tag added to C-terminus
T3 chain: T1 chain with P95T, T121A, A128S, H133P, D135N

T4: cynomolgus monkey FcγRIIb extracellular domain, C-terminal His-tag (cynomolgus monkey)
T4 construct: also called cyno FcγRIIb; cynoFcγRIIb; not shown: His-tag added to C-terminus
T4 chain: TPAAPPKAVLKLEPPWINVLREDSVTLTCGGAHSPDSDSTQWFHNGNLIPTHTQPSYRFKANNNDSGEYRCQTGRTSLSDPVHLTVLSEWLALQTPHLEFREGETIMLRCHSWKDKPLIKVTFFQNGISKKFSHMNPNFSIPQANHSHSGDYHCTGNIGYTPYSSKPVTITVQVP

T5: human FcγRIIaH extracellular domain, C-terminal His-tag (human, UniProt P12318 34-217)
T5 construct: also called human FcγRIIa (type H); FcgRIIaH; not shown: His-tag added to C-terminus
T5 sequence: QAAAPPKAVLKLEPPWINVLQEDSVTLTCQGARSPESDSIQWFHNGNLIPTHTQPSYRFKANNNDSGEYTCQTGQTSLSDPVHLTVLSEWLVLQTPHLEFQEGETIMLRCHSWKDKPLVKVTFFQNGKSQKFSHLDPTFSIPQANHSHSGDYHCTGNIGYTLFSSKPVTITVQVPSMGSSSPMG

T6: human FcγRIIaR extracellular domain, C-terminal His-tag (human, UniProt P12318 34-217)
T6 construct: also called human FcγRIIa (type R); FcgRIIaR; not shown: His-tag added to C-terminus
T6 chain: T5 sequence with H134R

T7: human FcγRIIb extracellular domain, C-terminal His-tag (human, UniProt P31994 43-217)
T7 construct: also called humanFcgRIIb; not shown: His-tag added to C-terminus
T7 sequence: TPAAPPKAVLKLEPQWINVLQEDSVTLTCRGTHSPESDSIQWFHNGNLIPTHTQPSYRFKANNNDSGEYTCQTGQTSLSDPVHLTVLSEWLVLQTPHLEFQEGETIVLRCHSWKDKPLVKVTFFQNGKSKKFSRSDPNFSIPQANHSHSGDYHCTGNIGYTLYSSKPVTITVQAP

B1: M103240H795-SG1074 / M103202L1045-SK1 (antibody)
heavy: QVQLVESGGGLVQPGGSLRLSCAVSGIDLSHDDISWVRQAPGKGLEWVSIISYAGSTYYASWAKGRLTISKDTSKNQVVLTMTNMDPVDTATYYCARGVPAYSHGGDLWGQGTLVTVSSASTKGPSVFPLAPSSKSTSGGTAALGCLVKDYFPEPVTVSWNSGALTSGVHTFPAVLQSSGLYSLSSVVTVPSSSLGTQTYICNVNHKPSNTKVDKKVEPKSCDKTHTCPPCPAPELLNGPSVFLFPPKPKDTLMISRTPEVTCVVVDVSDEDPEVKFNWYVDGVEVHNAKTKPREELYNSTYRVVSVLTVLHRDWLNGKEYKCKVSNTALPKPIEKTISKAKGQRREPQVYTLPPSREEMTKNQVSLTCLVKGFYPSDIAVEWESNGQPENNYKTTPPVLDSDGSFFLYSKLTVDKSRWQQGNVFSCSVLHEALHAHTTRKELSLSP
light: DIVMTQSPATLSLSPGERATLSCTTSQSVYHENWLSWFQQKPGQPPKLLIYWASTLAYGVPSRFSGSGSGTDFTLTISSLQPEDAATYYCAGGYGGGRYAFGQGTKVEIKRTVAAPSVFIFPPSDEQLKSGTASVVCLLNNFYPREAKVQWKVDNALQSGNSQESVTEQDSKDSTYSLSSTLTLSKADYEKHKVYACEVTHQGLSSPVTKSFNRGEC
notes: CH with G236N/H268D/Q295L/Q311R/K326T/A330K/P343R/M428L/N434A/Y436T/Q438R/S440E against SG1 (EU numbering); also called MS1032LO19-SG1074
B2: M103240H795-SG1079 / M103202L1045-SK1 (antibody)
heavy: B1 heavy with T328K, R345P, D415K, L430M, T438Y
light: B1 light
notes: CH with G236N/H268D/Q295L/Q311R/A330K/D413K/N434A/Q438R/S440E against SG1 (EU numbering); also called MS1032LO19-SG1079
B3: M103240H795-SG1080 / M103202L1045-SK1 (antibody)
heavy: B1 heavy with L430M, T438Y
light: B1 light
notes: CH with G236N/H268D/Q295L/Q311R/K326T/A330K/P343R/N434A/Q438R/S440E against SG1 (EU numbering); also called MS1032LO19-SG1080
B4: M103240H795-SG1081 / M103202L1045-SK1 (antibody)
heavy: B1 heavy with L237W, L430M, T438Y
light: B1 light
notes: CH with L235W/G236N/H268D/Q295L/Q311R/K326T/A330K/P343R/N434A/Q438R/S440E against SG1 (EU numbering); also called MS1032LO19-SG1081

Assays:
[1] = target: T1, cynomolgus monkey FcγRIIa1 …; assay: SPR (BIACORE), antibody captured, FcγR analyte
Experimental: (§1) The kinetic analysis of interactions between these antibodies and FcγR was carried out using BIACORE® T200 or BIACORE® 4000 (GE Healthcare). HBS-EP+ (GE Healthcare) was used as the running buffer, and the measurement temperature was set to 25° C. A chip produced by immobilizing Protein A. Protein A/G or mouse anti-human IgG kappa light chain (BD Biosciences) onto a Series S Sensor Chip CM4 or CM5 (GE Healthcare) by the amine-coupling method was used. […] After the measurement, the antibody captured on the chip was washed off by allowing reaction with 10 mM glycine-HCl, pH1.5 and 25 mM NaOH so that the chip was regenerated and used repeatedly. The sensorgrams obtained as measurement results were analyzed by the 1:1 Langmuir binding model using the BIACORE® Evaluation Software to calculate the binding rate constant ka (L/mol/s) and dissociation rate constant kd (l/s), and the dissociation constant KD (mol/L) was calculated from these values. […] Regarding such interactions, KD values were calculated using the following 1:1 binding model described in BIACORE® T100 Software Handbook BR1006-48 Edition AE.

[2] = target: T2, cynomolgus monkey FcγRIIa2 …; assay: SPR (BIACORE), antibody captured, FcγR analyte
Experimental: as §1

[3] = target: T3, cynomolgus monkey FcγRIIa3 …; assay: SPR (BIACORE), antibody captured, FcγR analyte
Experimental: as §1

[4] = target: T4, cynomolgus monkey FcγRIIb extracellular …; assay: SPR (BIACORE), antibody captured, FcγR analyte
Experimental: as §1

[5] = target: T8, cynomolgus monkey FcγRIIIaS extracellular domain, C-terminal His-tag (cynomolgus monkey, UniProt A3RFZ7 21-206 (rhesus entry)); assay: SPR (BIACORE), antibody captured, FcγR analyte
T8 construct: also called cyno FcγRIIIaS; cynoFcγRIIIaS; not shown: His-tag added to C-terminus
T8 sequence (A3RFZ7 21-206): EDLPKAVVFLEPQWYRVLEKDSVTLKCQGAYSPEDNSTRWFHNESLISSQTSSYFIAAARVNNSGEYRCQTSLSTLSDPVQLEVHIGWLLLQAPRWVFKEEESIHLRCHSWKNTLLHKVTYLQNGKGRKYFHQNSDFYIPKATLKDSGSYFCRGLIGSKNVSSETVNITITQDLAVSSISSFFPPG
Experimental: as §1

[6] = target: T5, human FcγRIIaH extracellular domain, …; assay: SPR (BIACORE), antibody captured, FcγR analyte
Experimental: as §1

[7] = target: T6, human FcγRIIaR extracellular domain, …; assay: SPR (BIACORE), antibody captured, FcγR analyte
Experimental: as §1

[8] = target: T7, human FcγRIIb extracellular domain, …; assay: SPR (BIACORE), antibody captured, FcγR analyte
Experimental: as §1

[9] = target: T9, human FcγRIIIaV extracellular domain, C-terminal His-tag (human, UniProt P08637 17-208); assay: SPR (BIACORE), antibody captured, FcγR analyte
T9 construct: also called FcgRIIIaV; not shown: His-tag added to C-terminus
T9 sequence (P08637 17-208 F176V): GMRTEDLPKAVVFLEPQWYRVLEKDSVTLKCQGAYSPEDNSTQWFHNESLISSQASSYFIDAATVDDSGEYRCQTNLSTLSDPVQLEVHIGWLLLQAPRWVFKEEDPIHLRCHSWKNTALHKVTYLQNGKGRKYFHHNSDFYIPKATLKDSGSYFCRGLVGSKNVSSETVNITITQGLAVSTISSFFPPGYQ
Experimental: as §1

[10] = target: T1, cynomolgus monkey FcγRIIa1 …; assay: SPR (BIACORE); KD of parent SG1 / KD of variant;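 also: relative to parent M103205H795-SG1 carrying the SG1 human heavy chain constant region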
Experimental: as §1

[11] = target: T2, cynomolgus monkey FcγRIIa2 …; assay: SPR (BIACORE); KD of parent SG1 / KD of variant;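 also: relative to parent M103205H795-SG1 carrying the SG1 human heavy chain constant region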
Experimental: as §1

[12] = target: T3, cynomolgus monkey FcγRIIa3 …; assay: SPR (BIACORE); KD of parent SG1 / KD of variant;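 also: relative to parent M103205H795-SG1 carrying the SG1 human heavy chain constant region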
Experimental: as §1

[13] = target: T4, cynomolgus monkey FcγRIIb extracellular …; assay: SPR (BIACORE); KD of parent SG1 / KD of variant;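 also: relative to parent M103205H795-SG1 carrying the SG1 human heavy chain constant region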
Experimental: as §1

[14] = target: T8, cynomolgus monkey FcγRIIIaS …; assay: SPR (BIACORE); KD of parent SG1 / KD of variant
Experimental: as §1

[15] = target: T5, human FcγRIIaH extracellular domain, …; assay: SPR (BIACORE); KD of parent SG1 / KD of variant
Experimental: as §1

[16] = target: T6, human FcγRIIaR extracellular domain, …; assay: SPR (BIACORE); KD of parent SG1 / KD of variant
Experimental: as §1

[17] = target: T7, human FcγRIIb extracellular domain, …; assay: SPR (BIACORE); KD of parent SG1 / KD of variant
Experimental: as §1

[18] = target: T9, human FcγRIIIaV extracellular domain, …; assay: SPR (BIACORE); KD of parent SG1 / KD of variant
Experimental: as §1

Kd [1] [nM]	Kd [2] [nM]	Kd [3] [nM]	Kd [4] [nM]	Kd [5] [nM]	Kd [6] [nM]	Kd [7] [nM]	Kd [8] [nM]	Kd [9] [nM]	KD fold (SG1 = 1) [10] [fold]	KD fold (SG1 = 1) [11] [fold]	KD fold (SG1 = 1) [12] [fold]	KD fold (SG1 = 1) [13] [fold]	KD fold (SG1 = 1) [14] [fold]	KD fold (SG1 = 1) [15] [fold]	KD fold (SG1 = 1) [16] [fold]	KD fold (SG1 = 1) [17] [fold]	KD fold (SG1 = 1) [18] [fold]	Binder
700	680	1100	160	1400	450	540	380	4500	5.4	6.1	6.2	11.1	0.19	2.2	1.8	10.2	0.18	B1
1100	1200	2100	300	3300	670	1200	690	5200	3.4	3.4	3.2	5.7	0.08	1.4	0.8	5.6	0.18	B2
650	680	1100	140	1400	450	560	370	4600	5.8	6.1	6.1	12.6	0.19	2.1	1.7	10.5	0.13	B3
1400	1800	2100	290	2900	990	680	500	3400	2.7	3.2	3.1	5.9	0.09	1	1.4	7.7	0.17	B4
